# Data published in publication PMC7666136 (2020).
# B1: eGFP-53BP1 (wild-type TP53-binding protein 1 tagged with enhanced green fluorescent protein) [not stated] / itself (parent complex)
# chain: MDPTGSQLDSDFSQQDTPCLIIEDSQPESQVLEDDSGSHFSMLSRHLPNLQTHKENPVLDVVSNPEQTAGEERGDGNSGFNEHLKENKVADPVDSSNLDTCGSISQVIEQLPQPNRTSSVLGMSVESAPAVEEEKGEELEQKEKEKEEDTSGNTTHSLGAEDTASSQLGFGVLELSQSQDVEENTVPYEVDKEQLQSVTTNSGYTRLSDVDANTAIKHEEQSNEDIPIAEQSSKDIPVTAQPSKDVHVVKEQNPPPARSEDMPFSPKASVAAMEAKEQLSAQELMESGLQIQKSPEPEVLSTQEDLFDQSNKTVSSDGCSTPSREEGGCSLASTPATTLHLLQLSGQRSLVQDSLSTNSSDLVAPSPDAFRSTPFIVPSSPTEQEGRQDKPMDTSVLSEEGGEPFQKKLQSGEPVELENPPLLPESTVSPQASTPISQSTPVFPPGSLPIPSQPQFSHDIFIPSPSLEEQSNDGKKDGDMHSSSLTVECSKTSEIEPKNSPEDLGLSLTGDSCKLMLSTSEYSQSPKMESLSSHRIDEDGENTQIEDTEPMSPVLNSKFVPAENDSILMNPAQDGEVQLSQNDDKTKGDDTDTRDDISILATGCKGREETVAEDVCIDLTCDSGSQAVPSPATRSEALSSVLDQEEAMEIKEHHPEEGSSGSEVEEIPETPCESQGEELKEENMESVPLHLSLTETQSQGLCLQKEMPKKECSEAMEVETSVISIDSPQKLAILDQELEHKEQEAWEEATSEDSSVVIVDVKEPSPRVDVSCEPLEGVEKCSDSQSWEDIAPEIEPCAENRLDTKEEKSVEYEGDLKSGTAETEPVEQDSSQPSLPLVRADDPLRLDQELQQPQTQEKTSNSLTEDSKMANAKQLSSDAEAQKLGKPSAHASQSFCESSSETPFHFTLPKEGDIIPPLTGATPPLIGHLKLEPKRHSTPIGISNYPESTIATSDVMSESMVETHDPILGSGKGDSGAAPDVDDKLCLRMKLVSPETEASEESLQFNLEKPATGERKNGSTAVAESVASPQKTMSVLSCICEARQENEARSEDPPTTPIRGNLLHFPSSQGEEEKEKLEGDHTIRQSQQPMKPISPVKDPVSPASQKMVIQGPSSPQGEAMVTDVLEDQKEGRSTNKENPSKALIERPSQNNIGIQTMECSLRVPETVSAATQTIKNVCEQGTSTVDQNFGKQDATVQTERGSGEKPVSAPGDDTESLHSQGEEEFDMPQPPHGHVLHRHMRTIREVRTLVTRVITDVYYVDGTEVERKVTEETEEPIVECQECETEVSPSQTGGSSGDLGDISSFSSKASSLHRTSSGTSLSAMHSSGSSGKGAGPLRGKTSGTEPADFALPSSRGGPGKLSPRKGVSQTGTPVCEEDGDAGLGIRQGGKAPVTPRGRGRRGRPPSRTTGTRETAVPGPLGIEDISPNLSPDDKSFSRVVPRVPDSTRRTDVGAGALRRSDSPEIPFQAAAGPSDGLDASSPGNSFVGLRVVAKWSSNGYFYSGKITRDVGAGKYKLLFDDGYECDVLGKDILLCDPIPLDTEVTALSEDEYFSAGVVKGHRKESGELYYSIEKEGQRKWYKRMAVILSLEQGNRLREQYGLGPYEAVTPLTKAADISLDNLVEGKRKRRSNVSSPATPTASSSSSTTPTRKITESPRASMGVLSGKRKLITSEEERSPAKRGRKSATVKPGAVGAGEFVSPCESGDNTGEPSALEEQRGPLPLNKTLFLGYAFLLTMATTSDKLASRSKLPDGPTGSSEEEEEFLEIPPFNKQYTESQLRAGAGYILEDFNEAQCNTAYQCLLIADQHCRTRKYFLCLASGIPCVSHVWVHDSCHANQLQNYRNYLLPAGYSLEEQRILDWQPRENPFQNLKVLLVSDQQQNFLELWSEILMTGGAASVKQHHSSAHNKDIALGVFDVVVTDPSCPASVLKCAEALQLPVVSQEWVIQCLIVGERIGFKQHPKYKHDYVSH
# Variants of: B1
# Test: Number and brightness (NB) analysis of fluorescence fluctuation spectroscopy in live DIvA cells; live DIvA cell nuclei, transient transfection, N = 10 cells, two biological replicates; value is the box median; parent: 0.22; read off a plot
row,screen value,Variant
1,~0.06 fraction (pixels),"chain 1 Y1258A, chain 1 Y1259A"

# Variants of: B1
# Test: Number and brightness (NB) analysis of fluorescence fluctuation spectroscopy in live DIvA cells; single representative cell ROI; value is the top of the teal (monomer) segment of the stacked bar, the rest of the bar being dimer (green); parent: 0.79; read off a plot
row,screen value,Variant
1,~0.96 fraction (pixels),"chain 1 Y1258A, chain 1 Y1259A"
